# Patent publication US20120189666A1, “PHARMACEUTICAL FORMULATIONS CONTAINING MICROPARTICLES OR NANOPARTICLES OF A DELIVERY AGENT” (priority 2004, published 2012)
# Several values for one entry are separate records, joined by “and”; a condition that tells them apart may be missing. Identical values can stand only once. Like-named read-outs stand apart in the source and are kept apart here.
# Columns and labels:
# [1] = for AUC0->∞ / C0: individual animals
# Description: (§1) This value was assumed to be constant in the estimates of absolute bioavailability.
# [2] = Description: as §1
# (§2) The portal bioavailability provides an estimate of drug absorption from oral delivery. […] This value is used to estimate bioavailability relative to subcutaneous.
# [3] = Insulin from subcutaneous (SC) administration; details: insulin dose 0.05 mg/kg
# Description: as §1, §2
# [4] = Estimates of bioavailability (absolute, portal, relative to subcutaneous); details: rat model
# Description: as §1, §2
# [5] = Insulin and 4-CNAB stability in simulated gastric fluid, HPLC; details: for Insulin % of theoretical: SGF
# Description: The SGF was prepared with and without pepsin, a gastric enzyme. SGF pH 1.2 was prepared as per the USP NF 26 guidelines. 2 g sodium chloride and 3.2 g of pepsin were weighed and added to a suitable container, and deionized water was added to reach one liter in volume. If necessary, the pH was adjusted to 1.2 by addition of concentrated HCl or NaOH. A second SGF solution omitting the pepsin was also prepared.
# Four 50 ml samples of SGF (two with pepsin and two without) were placed into a jacketed vessel connected to a circulating water bath set at 37° C. The solutions were stirred with magnetic stir bars for ten minutes to allow the solutions to reach 37° C. and reach thermal equilibrium.
# The term “% of theoretical” as used herein, means the percent of the concentration (mg/mL) of withdrawn solution at the time-point the sample was taken as compared to the theoretical concentration (mg/mL) of the measuring component for experiment. The standard of deviation for the HPLC analysis is ±5%.
# [6] = Stability of insulin in simulated intestinal fluid, HPLC
# Description: The SIF solutions were prepared with and without pancreatic enzyme. SIF pH 7.5 was prepared as per the USP NF 26 guidelines. SIF was prepared by addition of 6.8 g monobasic potassium phosphate and 10 g of pancreatin into a suitable vessel, and deionized water was added to reach a total volume of one liter. If necessary, the pH was adjusted to 7.5 by addition of 0.2 N sodium hydroxide. A second SIF solution omitting the pancreatin, an intestinal enzyme, was also prepared.
# Four 50 ml samples of SIF (two with pancreatin and two without) were placed into a jacketed vessel connected to a circulating water bath set at 37° C. The solutions were stirred with magnetic stir bars for ten minutes to allow the solutions to reach 37° C. and reach thermal equilibrium.
substance,measurement,setting,value
Insulin: Recombinant human zinc insulin,"C0->∞/Dose, Average","[1]; IV, all doses (2.5, 8, 9 μg/kg)",0.0053 kg/mL
same,AUC0->∞,"[1]; IV, dose 8 μg/kg",99.35 ng·min/mL and 99.32 ng·min/mL and 103.4 ng·min/mL
same,C0,"[1]; IV, dose 8 μg/kg",50.67 ng/mL and 52.64 ng/mL and 49.63 ng/mL
same,"AUC0->∞, X ± SD","[1]; IV, dose 8 μg/kg, n = 3",100.7 ± 2.4 ng·min/mL
same,"AUC0->∞/Dose, X ± SD","[1]; IV, dose 8 μg/kg, n = 3",0.0126 ± 0.0003 kg·min/mL
same,"Vd, X ± SD","[1]; IV, dose 8 μg/kg, n = 3",0.157 ± 0.005 L/kg
same,AUC0->∞,"[1]; IV, dose 9 μg/kg",99.55 ng·min/mL and 75.67 ng·min/mL and 122.89 ng·min/mL
same,C0,"[1]; IV, dose 9 μg/kg",46.79 ng/mL and 36.32 ng/mL and 55.30 ng/mL
same,"AUC0->∞, X ± SD","[1]; IV, dose 9 μg/kg, n = 3",99.4 ± 23.6 ng·min/mL
same,"AUC0->∞/Dose, X ± SD","[1]; IV, dose 9 μg/kg, n = 3",0.0110 ± 0.0026 kg·min/mL
same,"C0, X ± SD","[1]; IV, dose 9 μg/kg, n = 3",46.1 ± 9.5 ng/mL
same,"Vd, X ± SD","[1]; IV, dose 9 μg/kg, n = 3",0.201 ± 0.043 L/kg
same,"kel, X ± SD","[1]; IV, dose 9 μg/kg, n = 3",0.47 ± 0.02 min⁻¹
same,"AUC0->∞/Dose, X ± SD","[1]; IV, dose […], n = 5",0.0062 ± 0.0011 kg·min/mL
same,"Vd, X ± SD","[1]; IV, dose […], n = 5",0.219 ± 0.068 L/kg
same,average insulin AUC0→∞/Dose,[1]; intravenous dosing,0.0093 kg·min/mL
same,FPE (fH),[2]; individual animals,0.18
same,"AUC-IP, Average","[2]; portal administration, n = 5",9.65
same,maximum absolute bioavailability from oral delivery (100% GI absorption into the portal vein),"[2]; rat model, from intraportal administration",approximately 60%
same,"AUC-JV, Average","[2]; systemic administration, n = 5",15.53
same,Tmax,"[3]; per study, 0.05 mg/kg",30 min
same,Glucose,"[3]; time 0, study mean, 0.05 mg/kg",83 mg/dL and 73 mg/dL and 60 mg/dL and 68 mg/dL and 65 mg/dL and 70 mg/dL
same,Glucose,"[3]; time 15, study mean, 0.05 mg/kg",66 mg/dL and 42 mg/dL and 40 mg/dL and 45 mg/dL and 59 mg/dL
same,Glucose,"[3]; time 30, study mean, 0.05 mg/kg",60 mg/dL and 59 mg/dL and 38 mg/dL and 39 mg/dL and 64 mg/dL
same,Glucose,"[3]; time 45, study mean, 0.05 mg/kg",61 mg/dL and 64 mg/dL and 42 mg/dL and 36 mg/dL and 40 mg/dL and 69 mg/dL
same,Insulin,"[3]; time 180, study mean",8.30 uU/ml
same,absolute bioavailability from SC,[4],approximately 56%
same,insulin degraded,"[5]; SGF containing pepsin, first sampling point",97%
same,insulin remained,"[5]; SGF containing pepsin, first sampling point (0 minutes), 37° C.",3.0%
same,time insulin is stable,[5]; SGF without pepsin,≥ 2 h
same,Insulin % of theoretical,"[5]; insulin with 4-CNAB and enzymes (pepsin), 37° C., 0 minutes",3.0%
same,Insulin % of theoretical,"[5]; insulin with 4-CNAB and no enzymes, 24 h",0%
same,Insulin % of theoretical,"[5]; insulin without 4-CNAB and with enzymes (pepsin), 37° C., 0 minutes",3.0%
same,Insulin % of theoretical,"[5]; insulin without 4-CNAB and without enzymes, 24 h",0%
same,stability of insulin,[6]; SIF in presence of the enzyme (pancreatin),degrades
same,stability of insulin,[6]; SIF without pancreatin,stable
same,Insulin % of theoretical,"[6]; SIF, insulin with 4-CNAB and enzymes (pancreatin), 6 minutes",5.4%
